Where a chain is given by its changes, count along the chain named. Names and notes keep the numbering of the source.
B1: hu147E2-L1H3 (antibody, V domains shown)
VH: EVQLVQSGAEVKKPGSSVKVSCKASGYTFTSYWMHWVRQAPGQGLEWMGNINPSNGATNYNEKFKSRVTLTVDKSTSTAYMELSSLRSEDTAVYYCARDRSSQYYFDYWGQGTTVTVSS
VL: DIVMTQSPDSLAVSLGERATINCKSSQSLLNSRSRKNYLAWYQQKPGQPPKLLIYWASTRESGVPDRFSGSGSGTDFTLTISSLQAEDVAVYYCTQSYTLRTFGGGTKVEIK
notes: humanized 147E11E2; also called hu14E2-L1H3
B2: hu147E2-L2H3 (antibody, V domains shown)
VH: B1 VH
VL: B1 VL with P49S
notes: humanized 147E11E2; also called hu14E2-L2H3
B3: hu147E2-L1H4 (antibody, V domains shown)
VH: B1 VH with M48I, V68A
VL: B1 VL
notes: humanized 147E11E2; also called hu14E2-L1H4
B4: hu147E2-L1H3b (antibody, V domains shown)
VH: B1 VH with N55S
VL: B1 VL
notes: humanized 147E11E2 with N55S in HCDR2 (deamidation site removed); also called hu14E2-L1H3b
B5: hu147E2-L2H2 (antibody, V domains shown)
VH: B1 VH with L70I, V72A
VL: B1 VL with P49S
notes: humanized 147E11E2; also called hu14E2-L2H2
B6: hu147E2-L2H4 (antibody, V domains shown)
VH: B1 VH with M48I, V68A
VL: B1 VL with P49S
notes: humanized 147E11E2; also called hu14E2-L2H4
B7: hu40E9-L2H8 (antibody, V domains shown)
VH: EVQLVQSGAEVKKPGSSVKVSCKASGYTFSSYVIHWVRQAPGQGLEWMGYINPGNDVIKYNEKFKGRVTLTSDKSTSTAYMELSSLRSEDTAVYYCARESYSSYDGFAYWGQGTLVTVSS
VL: EIVLTQSPDFQSVTPKEKVTITCSASSSVSYMHWYQQKPDQSPKRLIYDTSKLASGVPSRFSGSGSGTDFTLTINSLEAEDAATYYCQQWSSNPPTFGGGTKVEIK
B8: hu40E9-L2H13 (antibody, V domains shown)
VH: B7 VH with G54Y, E99D, S100G, S102Y
VL: B7 VL
B9: hu40E9-L6H3 (antibody, V domains shown)
VH: B7 VH with G54Y, E99D, S102Y
VL: B7 VL with S91R, N93W
B10: hu40E9-L4H8 (antibody, V domains shown)
VH: B7 VH
VL: B7 VL with S91R, N93R
B11: hu40E9-L5H3 (antibody, V domains shown)
VH: B7 VH with G54Y, E99D, S102Y
VL: B7 VL with S91R, N93S
B12: hu40E9-L5H8 (antibody, V domains shown)
VH: B7 VH
VL: B7 VL with S91R, N93S
B13: hu40E9-L2H16 (antibody, V domains shown)
VH: B7 VH with S31D, G54Y, E99D, S102Y
VL: B7 VL
B14: hu40E9-L2H15 (antibody, V domains shown)
VH: B7 VH with G54Y, E99G, S102Y
VL: B7 VL
B15: hu40E9-L2H11 (antibody, V domains shown)
VH: B7 VH with G54Y, E99D, S102Y, D105R, G106A
VL: B7 VL
B16: hu40E9-L2H12 (antibody, V domains shown)
VH: B7 VH with G54Y, E99D, S100D, S102Y
VL: B7 VL
B17: hu40E9-L2H9 (antibody, V domains shown)
VH: B7 VH with G54Y, N55S, Y101F, S102Y
VL: B7 VL
B18: hu40E9-L2H10 (antibody, V domains shown)
VH: B7 VH with G54Y, E99D, S102Y, D105E, G106A
VL: B7 VL
B19: hu40E9-L4H3 (antibody, V domains shown)
VH: B7 VH with G54Y, E99D, S102Y
VL: B7 VL with S91R, N93R
B20: hu40E9-L5H7 (antibody, V domains shown)
VH: B7 VH with D56G, E99D
VL: B7 VL with S91R, N93S
B21: hu40E9-L2H14 (antibody, V domains shown)
VH: B7 VH with G54Y, S102Y
VL: B7 VL
B22: hu40E9-L4H7 (antibody, V domains shown)
VH: B7 VH with D56G, E99D
VL: B7 VL with S91R, N93R
B23: hu147E2-L1H2 (antibody, V domains shown)
VH: B1 VH with L70I, V72A
VL: B1 VL
notes: humanized 147E11E2; also called hu14E2-L1H2
B24: hu147E2-L1H3a (antibody, V domains shown)
VH: B1 VH with N55Q
VL: B1 VL
notes: humanized 147E11E2 with N55Q in HCDR2 (deamidation site removed); also called hu14E2-L1H3a

Target: T1, human CD3 (human, UniProt P07766 23-207; P04234 22-171; P09693 23-182)
Experiment: cell-based or functional assay

T1 sequence (P07766 23-207, chain 1 of 3): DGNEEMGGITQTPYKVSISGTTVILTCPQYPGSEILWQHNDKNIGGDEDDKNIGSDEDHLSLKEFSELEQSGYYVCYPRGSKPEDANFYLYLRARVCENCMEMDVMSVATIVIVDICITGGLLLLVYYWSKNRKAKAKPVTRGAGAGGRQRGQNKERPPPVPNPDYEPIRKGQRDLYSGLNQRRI
T1 sequence (P04234 22-171, chain 2 of 3): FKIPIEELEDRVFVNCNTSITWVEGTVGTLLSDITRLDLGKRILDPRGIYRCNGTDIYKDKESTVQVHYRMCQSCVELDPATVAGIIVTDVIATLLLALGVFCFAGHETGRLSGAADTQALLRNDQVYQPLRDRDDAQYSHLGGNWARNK
T1 sequence (P09693 23-182, chain 3 of 3): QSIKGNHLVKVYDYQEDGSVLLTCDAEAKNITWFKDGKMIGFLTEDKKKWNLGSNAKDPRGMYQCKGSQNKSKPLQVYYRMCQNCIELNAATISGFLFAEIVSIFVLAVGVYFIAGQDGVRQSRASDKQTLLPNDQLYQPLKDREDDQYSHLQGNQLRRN

| Binder | EC50_Fold change (Jurkat-NFAT-luciferase activation, normalized to ch147E11E2) [fold] | Top FACS signal_Fold change (Jurkat-NFAT-luciferase activation, normalized to ch147E11E2) [fold] |
| --- | --- | --- |
| B1 | 1.98 | 1 |
| B2 | 1.65 | 0.78 |
| B3 | 1.21 | 0.92 |
| B4 | 1.73 | 0.87 |
| B5 | 1.4 | 0.9 |
| B6 | 1.24 | 0.99 |

Target: T1, human CD3
Experiment: FACS on Jurkat cells

| Binder | EC50 [nM] | Top FACS signal |
| --- | --- | --- |
| B7 | 28 | 1240 |
| B8 | 83.7 | 2050 |
| B9 | 0.8 | 1990 |
| B10 | 26.9 | 255 |
| B11 | 0.66 | 2490 |
| B12 | 25.4 | 531 |
| B13 | 1.27 | 2010 |
| B14 | 51.7 | 796 |
| B15 | 5 | 2000 |
| B16 | 72.9 | 850 |
| B17 | 0.56 | 1760 |
| B18 | 2.55 | 1680 |
| B19 | 1.59 | 2490 |
| B20 | 0.48 | 1850 |
| B21 | 0.43 | 2020 |
| B22 | 1.52 | 1900 |

Target: T1, human CD3
Experiment: cell-based or functional assay
Remark: another data set of the same source

| Binder | EC50_Fold change (Jurkat-NFAT-luciferase activation, normalized to ch40-C12-C10-E9) [fold] | Top signal_Fold change (Jurkat-NFAT-luciferase activation, normalized to ch40-C12-C10-E9) [fold] |
| --- | --- | --- |
| B7 | 18.4 | 0.69 |
| B8 | 3.08 | 0.51 |
| B9 | 4.34 | 0.95 |
| B10 |  | 0.32 |
| B11 | 23.2 | 1.47 |
| B12 |  | 0.3 |
| B13 | 6.18 | 1.35 |
| B14 | 98.6 | 0.75 |
| B15 | 2.97 | 0.85 |
| B16 | 21.3 | 0.73 |
| B17 | 2.49 | 0.87 |
| B18 | 12.6 | 1.01 |
| B19 | 1.82 | 1.08 |
| B20 | 3.41 | 1.15 |
| B21 | 3.86 | 0.96 |
| B22 | 1.95 | 1.12 |

Target: T2, cynomolgus CD3 (cynomolgus (Macaca fascicularis), UniProt Q95LI5 22-198; Q95LI8 22-171; Q95LI7 23-181)
T2 construct: whole, on cells; composition of the 'mix' not defined; also called cynoCD3
Experiment: FACS on 293T-cynoCD3mix cells

T2 sequence (Q95LI5 22-198, chain 1 of 3): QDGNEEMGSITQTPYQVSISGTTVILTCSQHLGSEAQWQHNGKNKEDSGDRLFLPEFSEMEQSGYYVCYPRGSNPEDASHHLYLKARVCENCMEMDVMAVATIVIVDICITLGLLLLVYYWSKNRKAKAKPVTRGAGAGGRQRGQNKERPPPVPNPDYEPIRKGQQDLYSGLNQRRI
T2 sequence (Q95LI8 22-171, chain 2 of 3): as the sequence (P04234 22-171, chain 2 of 3) above, with I5V, N15K, I20V, S32T, D33N, I34N, T64A, S74N, V83L, H141R counted along it
T2 sequence (Q95LI7 23-181, chain 3 of 3): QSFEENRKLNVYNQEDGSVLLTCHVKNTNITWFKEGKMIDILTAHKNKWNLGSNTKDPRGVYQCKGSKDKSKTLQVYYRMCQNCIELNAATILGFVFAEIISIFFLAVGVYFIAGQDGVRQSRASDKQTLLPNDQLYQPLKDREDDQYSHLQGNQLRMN

| Binder | EC50 [nM] | Top signal |
| --- | --- | --- |
| B1 | 1.51 | 19200 |
| B23 | 2.01 | 19700 |
| B2 | 1.86 | 21000 |
| B3 | 1.31 | 18700 |
| B4 | 1.68 | 21100 |
| B5 | 1.64 | 20500 |
| B6 | 2.02 | 21200 |
| B24 | 1.66 | 20700 |

Source: patent US20250223358A1 (ANTENGENE BIOLOGICS, published 2025)
